T1: Human CD3eg linker (human)
T1 construct: Single chain: CD3 epsilon and gamma subunits joined by a 29-mer linker, Flag-tag at the C-terminus; also called recombinant human CD3
T1 chain: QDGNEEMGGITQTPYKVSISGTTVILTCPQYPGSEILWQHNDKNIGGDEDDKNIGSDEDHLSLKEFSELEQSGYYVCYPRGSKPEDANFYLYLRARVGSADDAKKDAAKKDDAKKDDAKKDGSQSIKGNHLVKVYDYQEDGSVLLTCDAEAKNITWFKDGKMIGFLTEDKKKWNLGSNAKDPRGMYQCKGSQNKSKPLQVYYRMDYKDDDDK


Tests used:
Human CD137 ECD = biological target: T2, Human CD137 ECD (human); experiment: SPR (Biacore), affinity of single-mutation variant against parental H183/L072
T2 construct: also called human CD137 extracellular domain; hCD137
T2 sequence (chain, as listed by the source limits assumed): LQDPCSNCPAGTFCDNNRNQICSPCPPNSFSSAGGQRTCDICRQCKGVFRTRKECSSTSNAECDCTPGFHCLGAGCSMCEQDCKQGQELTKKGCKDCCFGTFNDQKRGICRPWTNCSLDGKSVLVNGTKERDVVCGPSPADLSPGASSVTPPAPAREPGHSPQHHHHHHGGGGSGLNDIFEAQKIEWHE

Human CD3eg linker = biological target: T1, Human CD3eg linker; experiment: affinity relative to template H183/L072, single-mutation scan

fold change of affinity for CD137 (Human CD137 ECD) | fold change of affinity for CD3 (Human CD3eg linker) | Binder
0 fold |  | Dual-Fab H183/L072 variant with single light chain mutation G91Y (Kabat) (antibody, name in Kabat numbering, V domains shown, expressed as an antibody in Expi293 and purified on Protein A; also called dBBDu183H / dBBDu072L G91Y) VH: QVQLVESGGGLVQPGRSLRLSCAASGFTFSNAWMHWVRQAPGKGLEWVAQIKDKGNAYAAYYAPSVKGRFTISRDDSKNSIYLQMNSLKTEDTAVYYCHYVHYASASTVLPAFGVDAWGQGTTVTVSS VL: DIVMTQSPLSLPVTPGEPASISCQASQELVHMNRNTYLHWYQQKPGQAPRLLIYKVSNRFPGVPDRFSGSGSGTDFTLKISRVEAEDVGVYYCAQYTSVPFTFGQGTKLEIK
 | 10.6 fold | H183/L072 with F55Y (Kabat) in VL dBBDu072L (antibody, name in Kabat numbering, V domains shown, Single-mutation variant of H183L072) VH: QVQLVESGGGLVQPGRSLRLSCAASGFTFSNAWMHWVRQAPGKGLEWVAQIKDKGNAYAAYYAPSVKGRFTISRDDSKNSIYLQMNSLKTEDTAVYYCHYVHYASASTVLPAFGVDAWGQGTTVTVSS VL: DIVMTQSPLSLPVTPGEPASISCQASQELVHMNRNTYLHWYQQKPGQAPRLLIYKVSNRYPGVPDRFSGSGSGTDFTLKISRVEAEDVGVYYCAQGTSVPFTFGQGTKLEIK
0 fold |  | Dual-Fab H183/L072 variant with single light chain mutation Q90Y (Kabat) (antibody, name in Kabat numbering, V domains shown, expressed as an antibody in Expi293 and purified on Protein A; also called dBBDu183H / dBBDu072L Q90Y) VH: QVQLVESGGGLVQPGRSLRLSCAASGFTFSNAWMHWVRQAPGKGLEWVAQIKDKGNAYAAYYAPSVKGRFTISRDDSKNSIYLQMNSLKTEDTAVYYCHYVHYASASTVLPAFGVDAWGQGTTVTVSS VL: DIVMTQSPLSLPVTPGEPASISCQASQELVHMNRNTYLHWYQQKPGQAPRLLIYKVSNRFPGVPDRFSGSGSGTDFTLKISRVEAEDVGVYYCAYGTSVPFTFGQGTKLEIK
0.3 fold |  | Dual-Fab H183/L072 variant with single light chain mutation T97Y (Kabat) (antibody, name in Kabat numbering, V domains shown, expressed as an antibody in Expi293 and purified on Protein A; also called dBBDu183H / dBBDu072L T97Y) VH: QVQLVESGGGLVQPGRSLRLSCAASGFTFSNAWMHWVRQAPGKGLEWVAQIKDKGNAYAAYYAPSVKGRFTISRDDSKNSIYLQMNSLKTEDTAVYYCHYVHYASASTVLPAFGVDAWGQGTTVTVSS VL: DIVMTQSPLSLPVTPGEPASISCQASQELVHMNRNTYLHWYQQKPGQAPRLLIYKVSNRFPGVPDRFSGSGSGTDFTLKISRVEAEDVGVYYCAQGTSVPFYFGQGTKLEIK
0.2 fold |  | Dual-Fab H183/L072 variant with single light chain mutation V51Y (Kabat) (antibody, name in Kabat numbering, V domains shown, expressed as an antibody in Expi293 and purified on Protein A; also called dBBDu183H / dBBDu072L V51Y) VH: QVQLVESGGGLVQPGRSLRLSCAASGFTFSNAWMHWVRQAPGKGLEWVAQIKDKGNAYAAYYAPSVKGRFTISRDDSKNSIYLQMNSLKTEDTAVYYCHYVHYASASTVLPAFGVDAWGQGTTVTVSS VL: DIVMTQSPLSLPVTPGEPASISCQASQELVHMNRNTYLHWYQQKPGQAPRLLIYKYSNRFPGVPDRFSGSGSGTDFTLKISRVEAEDVGVYYCAQGTSVPFTFGQGTKLEIK
0.2 fold |  | Dual-Fab H183/L072 variant with single light chain mutation R54Y (Kabat) (antibody, name in Kabat numbering, V domains shown, expressed as an antibody in Expi293 and purified on Protein A; also called dBBDu183H / dBBDu072L R54Y) VH: QVQLVESGGGLVQPGRSLRLSCAASGFTFSNAWMHWVRQAPGKGLEWVAQIKDKGNAYAAYYAPSVKGRFTISRDDSKNSIYLQMNSLKTEDTAVYYCHYVHYASASTVLPAFGVDAWGQGTTVTVSS VL: DIVMTQSPLSLPVTPGEPASISCQASQELVHMNRNTYLHWYQQKPGQAPRLLIYKVSNYFPGVPDRFSGSGSGTDFTLKISRVEAEDVGVYYCAQGTSVPFTFGQGTKLEIK
0 fold |  | Dual-Fab H183/L072 variant with single light chain mutation T92Y (Kabat) (antibody, name in Kabat numbering, V domains shown, expressed as an antibody in Expi293 and purified on Protein A; also called dBBDu183H / dBBDu072L T92Y) VH: QVQLVESGGGLVQPGRSLRLSCAASGFTFSNAWMHWVRQAPGKGLEWVAQIKDKGNAYAAYYAPSVKGRFTISRDDSKNSIYLQMNSLKTEDTAVYYCHYVHYASASTVLPAFGVDAWGQGTTVTVSS VL: DIVMTQSPLSLPVTPGEPASISCQASQELVHMNRNTYLHWYQQKPGQAPRLLIYKVSNRFPGVPDRFSGSGSGTDFTLKISRVEAEDVGVYYCAQGYSVPFTFGQGTKLEIK
0.3 fold |  | Dual-Fab H183/L072 variant with single light chain mutation N53Y (Kabat) (antibody, name in Kabat numbering, V domains shown, expressed as an antibody in Expi293 and purified on Protein A; also called dBBDu183H / dBBDu072L N53Y) VH: QVQLVESGGGLVQPGRSLRLSCAASGFTFSNAWMHWVRQAPGKGLEWVAQIKDKGNAYAAYYAPSVKGRFTISRDDSKNSIYLQMNSLKTEDTAVYYCHYVHYASASTVLPAFGVDAWGQGTTVTVSS VL: DIVMTQSPLSLPVTPGEPASISCQASQELVHMNRNTYLHWYQQKPGQAPRLLIYKVSYRFPGVPDRFSGSGSGTDFTLKISRVEAEDVGVYYCAQGTSVPFTFGQGTKLEIK

Source: US20210388087A1 (Chugai, published 2021)
